{"source": "paper PMC3235114", "about": "“Characterization of the Partitioning System of Myxococcus Plasmid pMF1”", "binders": {"B1": {"name": "ItA (dsDNA)", "DNA 1": "GGAAGTCTGGAAGTCTAGATGTCTAGATGTTTGAATGTTTGGAGTGGG", "DNA 2": "CCCACTCCAAACATTCAAACATCTAGACATCTAGACTTCCAGACTTCC"}, "B2": {"name": "non-iteron fragment (dsDNA)", "DNA 1": "CGGGCGTCACAGGGGGGAACGCGATGTTGGAGGGTCGGAAATGAGCGAGTCG", "DNA 2": "CGACTCGCTCATTTCCGACCCTCCAACATCGCGTTCCCCCCTGTGACGCCCG"}, "B3": {"name": "ItB (dsDNA)", "DNA 1": "GTGATGTCTAGAGGTCTGGATGTCTAGATGTCTAGATGTCT", "DNA 2": "AGACATCTAGACATCTAGACATCCAGACCTCTAGACATCAC"}, "B4": {"name": "ItC (dsDNA)", "DNA 1": "AGACATCTGGAAGTCTGGATGTC", "DNA 2": "GACATCCAGACTTCCAGATGTCT"}, "B5": {"name": "ItD (dsDNA)", "DNA 1": "AGAAGTCCAGACATCTGGACATTCAGAAGTCTAGACATCTGGATGTCCAGATGGGG", "DNA 2": "CCCCATCTGGACATCCAGATGTCTAGACTTCTGAATGTCCAGATGTCTGGACTTCT"}, "B6": {"name": "ItE (dsDNA)", "DNA 1": "AAGTGTCTAGATGTCTAGATGTCT", "DNA 2": "AGACATCTAGACATCTAGACACTT"}, "B7": {"name": "ItF (dsDNA)", "DNA 1": "AGAGGTCTAGGTGTCTGGAAGTCTGGAGGTCTGGATGTC", "DNA 2": "GACATCCAGACCTCCAGACTTCCAGACACCTAGACCTCT"}}, "key": {"[1]": {"molecular_target": "T1, ParC (ORF21, pMF1.21 product) (Myxococcus fulvus 124B02 plasmid pMF1, UniProt B0YR30 1-87)", "T1 sequence": "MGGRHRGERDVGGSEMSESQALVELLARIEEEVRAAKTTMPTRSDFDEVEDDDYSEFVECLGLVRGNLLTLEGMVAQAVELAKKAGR", "assay": "EMSA; data not shown; EMSA: 12 mM HEPES, 4 mM Tris-HCl pH 8.0, 60 mM KCl, 5 mM MgCl2, 0.1 mM EDTA, 1 ug poly(dI-dC), 2% glycerol, 12 pmol probe, 30 min 30 C; footprint: HEMG (50 mM EDTA as printed, 50 mM KCl, 12.5 mM HEPES pH 7.6, 6 mM MgCl2, 5% glycerol), 20 mM HEPES pH 7.6, 5 ug poly(dI-dC), 30 min 30 C", "details": "protein: recombinant, tags: His6 (pET-15b), label: 3' biotin"}, "[2]": {"molecular_target": "T2, ParB (ORF23, pMF1.23 product), His-tag free (Myxococcus fulvus 124B02 plasmid pMF1, UniProt B0YR32 12-86)", "T2 sequence": "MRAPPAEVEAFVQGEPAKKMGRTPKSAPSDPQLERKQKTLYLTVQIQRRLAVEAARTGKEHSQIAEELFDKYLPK", "assay": "EMSA; similar affinity to His-tagged protein; EMSA: 12 mM HEPES, 4 mM Tris-HCl pH 8.0, 60 mM KCl, 5 mM MgCl2, 0.1 mM EDTA, 1 ug poly(dI-dC), 2% glycerol, 12 pmol probe, 30 min 30 C; footprint: HEMG (50 mM EDTA as printed, 50 mM KCl, 12.5 mM HEPES pH 7.6, 6 mM MgCl2, 5% glycerol), 20 mM HEPES pH 7.6, 5 ug poly(dI-dC), 30 min 30 C", "details": "protein: recombinant; tags: none; label: 3' biotin; blunt"}, "[3]": {"molecular_target": "T3, ParB (ORF23, pMF1.23 product), His-tagged (Myxococcus fulvus 124B02 plasmid pMF1, UniProt B0YR32 12-86)", "T3 sequence": "T2 sequence", "assay": "EMSA; poly(dI-dC), 5 mM MgCl2; unlabeled ItA competes; EMSA: 12 mM HEPES, 4 mM Tris-HCl pH 8.0, 60 mM KCl, 5 mM MgCl2, 0.1 mM EDTA, 1 ug poly(dI-dC), 2% glycerol, 12 pmol probe, 30 min 30 C; footprint: HEMG (50 mM EDTA as printed, 50 mM KCl, 12.5 mM HEPES pH 7.6, 6 mM MgCl2, 5% glycerol), 20 mM HEPES pH 7.6, 5 ug poly(dI-dC), 30 min 30 C", "details": "protein: recombinant; tags: N-terminal His6 (pET-15b); label: 3' biotin; blunt"}, "[4]": {"molecular_target": "T3, ParB (ORF23, pMF1.23 product), …", "assay": "EMSA; up to 1000 ng protein; EMSA: 12 mM HEPES, 4 mM Tris-HCl pH 8.0, 60 mM KCl, 5 mM MgCl2, 0.1 mM EDTA, 1 ug poly(dI-dC), 2% glycerol, 12 pmol probe, 30 min 30 C; footprint: HEMG (50 mM EDTA as printed, 50 mM KCl, 12.5 mM HEPES pH 7.6, 6 mM MgCl2, 5% glycerol), 20 mM HEPES pH 7.6, 5 ug poly(dI-dC), 30 min 30 C", "details": "protein: recombinant; tags: N-terminal His6 (pET-15b); label: 3' biotin"}, "[5]": {"molecular_target": "T3, ParB (ORF23, pMF1.23 product), …", "assay": "EMSA; unlabeled ItB competes; EMSA: 12 mM HEPES, 4 mM Tris-HCl pH 8.0, 60 mM KCl, 5 mM MgCl2, 0.1 mM EDTA, 1 ug poly(dI-dC), 2% glycerol, 12 pmol probe, 30 min 30 C; footprint: HEMG (50 mM EDTA as printed, 50 mM KCl, 12.5 mM HEPES pH 7.6, 6 mM MgCl2, 5% glycerol), 20 mM HEPES pH 7.6, 5 ug poly(dI-dC), 30 min 30 C", "details": "protein: recombinant; tags: N-terminal His6 (pET-15b); label: 3' biotin; blunt"}, "[6]": {"molecular_target": "T3, ParB (ORF23, pMF1.23 product), …", "assay": "EMSA; EMSA: 12 mM HEPES, 4 mM Tris-HCl pH 8.0, 60 mM KCl, 5 mM MgCl2, 0.1 mM EDTA, 1 ug poly(dI-dC), 2% glycerol, 12 pmol probe, 30 min 30 C; footprint: HEMG (50 mM EDTA as printed, 50 mM KCl, 12.5 mM HEPES pH 7.6, 6 mM MgCl2, 5% glycerol), 20 mM HEPES pH 7.6, 5 ug poly(dI-dC), 30 min 30 C", "details": "protein: recombinant; tags: N-terminal His6 (pET-15b); label: 3' biotin; blunt"}}, "data": [{"binder": "B1", "values": [{"measurement": "binding result", "setting": "[1]; blunt", "value": "no binding"}, {"measurement": "binding result", "setting": "[2]", "value": "binds"}, {"measurement": "binding result", "setting": "[3]", "value": "binds"}]}, {"binder": "B2", "values": [{"measurement": "binding result", "setting": "[1]", "value": "no binding"}, {"measurement": "binding result", "setting": "[4]", "value": "no binding"}]}, {"binder": "B3", "values": [{"measurement": "binding result", "setting": "[5]", "value": "binds"}]}, {"binder": "B4", "values": [{"measurement": "binding result", "setting": "[6]", "value": "binds"}]}, {"binder": "B5", "values": [{"measurement": "binding result", "setting": "[6]", "value": "binds"}]}, {"binder": "B6", "values": [{"measurement": "binding result", "setting": "[6]", "value": "binds"}]}, {"binder": "B7", "values": [{"measurement": "binding result", "setting": "[6]", "value": "binds"}]}]}
